The results in this text go back to patent US20190314531A1.

Assay [1] concerns the target human PD-L1 on cells (CHO cells stably expressing human PD-L1; MDAMB231, HCC827, H226, doxycycline-treated A549-iPDL1 cells and their tumors) (human) (UniProt Q9NZQ7). Nature of the assay: cell-based or functional assay.
In assay [2] the target is recombinant human PD-L1(B7-H1)-His-tag protein (catalog #9049-B7, R&D systems) (human) (UniProt Q9NZQ7). Nature of the assay: FRET competitive inhibition of PD-L1 binding to PD-1.
Chain of recombinant human PD-L1(B7-H1)-His-tag protein (catalog #9049-B7, R&D systems) (human) (Q9NZQ7 19-239 limits assumed): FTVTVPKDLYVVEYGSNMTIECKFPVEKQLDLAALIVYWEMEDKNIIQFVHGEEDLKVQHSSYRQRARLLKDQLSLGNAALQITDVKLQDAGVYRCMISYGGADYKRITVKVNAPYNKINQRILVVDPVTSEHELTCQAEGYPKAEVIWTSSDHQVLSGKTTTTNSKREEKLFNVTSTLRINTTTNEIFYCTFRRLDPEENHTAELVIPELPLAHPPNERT
Assay [3] addresses human PD-L1 on cells (CHO cells stably expressing human PD-L1; MDAMB231, HCC827, H226, doxycycline-treated A549-iPDL1 cells and their tumors) (human) (UniProt Q9NZQ7). Nature of the assay: hPD-L1 cells, 1 uM blocking dose of WL12; competitor [^64Cu]WL12.
The target is the same in assay [4]. Nature of the assay: flow cytometry, in vitro binding; competitor Cy5-conjugated AtzMab. On the technique in general: In flow cytometry, cells or beads pass a laser one at a time.
In assay [5] the target is recombinant human PD-L1(B7-H1)-His-tag protein (catalog #9049-B7, R&D systems) (human) (UniProt Q9NZQ7). Nature of the assay: FRET competitive inhibition of PD-L1-His-tag binding to PD-1-Ig, Cheng-Prusoff.
Assay [6] shares this target. Nature of the assay: FRET competitive inhibition of PD-L1-His-tag (80 nM) binding to PD-1-Ig (20 nM).
Assay [7] has as its target human PD-L1 on cells (CHO cells stably expressing human PD-L1; MDAMB231, HCC827, H226, doxycycline-treated A549-iPDL1 cells and their tumors) (human) (UniProt Q9NZQ7). Nature of the assay: flow cytometry on hPD-L1 cells, serial dilutions of WL12; competitor BD-MIH1-PE.
Assay [8] shares this target. Nature of the assay: flow cytometry on hPD-L1 cells, serial dilutions of WL12; competitor Cy5-AtzMab.
For assay [9] the target is unchanged. Nature of the assay: flow cytometry on Cho-hPD-L1 and MDAMB231 cells; competitors Cy5-AtzMab, Cy5-AveMab, Cy5-DurMab (ends not tied to one mAb).
The target is the same in assay [10]. Nature of the assay: radiotracer on hPD-L1 cells, 1 h, gamma counting.

Chain of human PD-L1 on cells (CHO cells stably expressing human PD-L1; MDAMB231, HCC827, H226, doxycycline-treated A549-iPDL1 cells and their tumors) (human) (Q9NZQ7 19-290): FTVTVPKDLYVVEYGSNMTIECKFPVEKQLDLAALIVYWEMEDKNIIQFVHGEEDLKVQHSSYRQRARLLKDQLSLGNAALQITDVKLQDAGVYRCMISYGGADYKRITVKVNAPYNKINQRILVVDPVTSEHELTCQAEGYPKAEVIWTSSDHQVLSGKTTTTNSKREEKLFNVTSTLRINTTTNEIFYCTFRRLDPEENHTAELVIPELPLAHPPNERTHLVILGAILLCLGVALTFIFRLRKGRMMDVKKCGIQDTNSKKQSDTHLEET

The term IC50 denotes the concentration that gives 50% inhibition. The Ki is the dissociation constant of the complex between target and ligand, obtained from inhibition or displacement. In assay [1], WL12 (unmodified PD-L1 binding peptide) returned a reduction in % ID/g of [^64Cu]WL12 in hPD-L1 tumors on co-injection of excess WL12 (50 ug, 2 mg/kg), 2 h above 75%. The IC50 in [2] amounted to 22 nM; in assay [4] it was 37.8 nM; in assay [6], 20.3 nM; in assay [7], 37.8 nM; in assay [8] it was 2.5 nM. In addition, in assay [3], the reduction in bound [^64Cu]WL12 was above 95%. Besides, the Ki in assay [5] is 1.1 nM. In assay [9], this substance yielded an inhibitory concentrations of 5 nM.
In the case of “WL12-Cu^2+ complex (copper complex of WL12D) (peptide)”, the values for the IC50 in [2] and in assay [6] were 2.9 nM and 2.97 nM, respectively. In addition, the inhibitory constant (Ki) in assay [5] stood at 1.38 nM.
For WL12-DOTAGA (WL12D) (peptide) the same measures were 23 nM, 22.2 nM and 10.4 nM.
Regarding [^64Cu]WL12 (peptide), in assay [1], the accumulation of [^64Cu]WL12 in A549-iPDL1 tumors after 72 h doxycycline against A549 control tumors worked out at 65% and the radioactivity uptake in hPD-L1 tumors at 1 h, percentage of injected dose/g amounted to 14.9 % ID/g. The same substance yielded an uptake of the incubated dose in [10] above 50%.
